Assay results published in patent US20040223968A1.

Assays:
Test in all cases: cell-based or functional assay
[1] = target: MCP-1RB (monocyte chemoattractant protein-1 receptor B) (human) (UniProt P41597)
[2] = target: MIP-1α/RANTES receptor (Homo sapiens (Human)) (UniProt P32246)
[3] = target: MCP-1RA (monocyte chemoattractant protein-1 receptor A) (human) (UniProt P41597)
MCP-1RA (monocyte chemoattractant protein-1 receptor A) (human), sequence (P41597 whole entry): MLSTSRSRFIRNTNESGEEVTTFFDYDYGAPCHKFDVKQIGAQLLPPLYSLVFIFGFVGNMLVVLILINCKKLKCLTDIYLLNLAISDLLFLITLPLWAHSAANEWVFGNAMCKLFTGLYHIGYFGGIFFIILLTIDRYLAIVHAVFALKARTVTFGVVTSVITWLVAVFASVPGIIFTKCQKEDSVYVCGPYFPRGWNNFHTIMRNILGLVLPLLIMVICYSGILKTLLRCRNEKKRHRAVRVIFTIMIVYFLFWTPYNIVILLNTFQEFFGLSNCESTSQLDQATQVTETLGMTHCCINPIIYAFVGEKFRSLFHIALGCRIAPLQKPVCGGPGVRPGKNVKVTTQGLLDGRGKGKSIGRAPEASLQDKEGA

MCP-1RB (monocyte chemoattractant protein-1 receptor B) (human), sequence (P41597 other isoform, or with tags, fused parts or gaps): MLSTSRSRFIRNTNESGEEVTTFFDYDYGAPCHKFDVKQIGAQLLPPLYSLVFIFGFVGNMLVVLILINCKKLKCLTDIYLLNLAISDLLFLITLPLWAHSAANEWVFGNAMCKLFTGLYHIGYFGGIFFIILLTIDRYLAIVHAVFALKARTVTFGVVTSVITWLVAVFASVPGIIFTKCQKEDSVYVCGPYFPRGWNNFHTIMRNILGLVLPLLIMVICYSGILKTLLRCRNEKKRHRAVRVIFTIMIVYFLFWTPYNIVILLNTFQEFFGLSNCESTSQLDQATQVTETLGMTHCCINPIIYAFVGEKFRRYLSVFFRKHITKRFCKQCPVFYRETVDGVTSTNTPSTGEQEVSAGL
MIP-1α/RANTES receptor (Homo sapiens (Human)), sequence (P32246 whole entry): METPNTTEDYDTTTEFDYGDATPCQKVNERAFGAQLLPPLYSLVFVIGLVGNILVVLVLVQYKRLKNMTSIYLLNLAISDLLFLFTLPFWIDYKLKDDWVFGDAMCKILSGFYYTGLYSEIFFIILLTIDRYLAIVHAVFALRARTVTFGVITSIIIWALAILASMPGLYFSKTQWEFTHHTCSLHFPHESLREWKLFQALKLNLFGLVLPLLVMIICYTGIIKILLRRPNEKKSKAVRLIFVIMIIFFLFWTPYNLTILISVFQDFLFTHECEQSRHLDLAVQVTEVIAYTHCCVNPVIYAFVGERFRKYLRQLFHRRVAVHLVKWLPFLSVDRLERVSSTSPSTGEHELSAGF

## Gro-α (from UniProt P09341 35-107) (ligand)
[1]
  IC50(nM), Inhibition of Adenylyl Cyclase, 293 cells stably expressing MCP-1RB: > 1000 nM
[2]
  IC50(nM), Inhibition of Adenylyl Cyclase, 293 cells stably expressing the MIP-1α/RANTES receptor: > 1000 nM

## IL-8 (interleukin-8) (from UniProt P10145 28-99) (ligand)
[1]
  IC50(nM), Inhibition of Adenylyl Cyclase, 293 cells stably expressing MCP-1RB: > 1000 nM

## MCP-1 (monocyte chemoattractant protein-1) (from UniProt P13500 24-99) (ligand)
[1]
  EC50, 45Ca efflux in Xenopus oocytes injected with receptor cRNA: 15 nM
  EC50, intracellular calcium mobilization (indo-1) in stably transfected MCP-1RB/293 cells: 3.4 nM
  IC50(nM), Inhibition of Adenylyl Cyclase, 293 cells stably expressing MCP-1RB: 0.09 nM
  Selectivity (MCP-1RB against the MIP-1α/RANTES receptor, from the adenylyl cyclase IC50s): > 9000 fold
  block of the forskolin-induced increase of cAMP in MCP-1RB-transfected 293 cells: 78%
  reduction of basal cAMP accumulation in MCP-1RB-transfected 293 cells: 55%
[3]
  EC50, 45Ca efflux in Xenopus oocytes injected with receptor cRNA: 15 nM
[2]
  IC50(nM), Inhibition of Adenylyl Cyclase, 293 cells stably expressing the MIP-1α/RANTES receptor: 820 nM

## MIP-1α (from UniProt P10147 27-92) (ligand)
[1]
  IC50(nM), Inhibition of Adenylyl Cyclase, 293 cells stably expressing MCP-1RB: > 1000 nM

## MIP-1β (from UniProt P13236 24-92) (ligand)
[1]
  IC50(nM), Inhibition of Adenylyl Cyclase, 293 cells stably expressing MCP-1RB: > 1000 nM

## RANTES (from UniProt P13501 24-91) (ligand)
[1]
  IC50(nM), Inhibition of Adenylyl Cyclase, 293 cells stably expressing MCP-1RB: > 1000 nM
